Reference: the Human Domainome abundance scans (Beltran et al. 2025)
± gives the uncertainty stated by the source.

B1: Pyruvate dehydrogenase protein X component, mitochondrial, residues 181 to 227; numbered along this chain, O00330 (parent)
chain: RFRLSPAARNILEKHSLDASQGTATGPRGIFTKEDALKLVQLKQTGK

Variants of: B1
Assay: abundance fitness (aPCA) (normalised: wild type 0, dead -1); higher = more abundant; growth selection in yeast, the domain comes from the species named
Details: Homo sapiens
RFRLSPAARNILEKHSLDASQGTATGPRGIFTKEDALKLVNLKQTGK [Q41N] showed an abundance fitness of -0.159 ± 0.12.
RFRLSPAARNILEKHSLDASQGTATGPRGIFTKEDALKLVQKKQTGK [L42K] showed an abundance fitness of 0.221 ± 0.12.
With RFRLSNAARNILEKHSLDASQGTATGPRGIFTKEDALKLVQLKQTGK [P6N] the abundance fitness was -0.053 ± 0.076.
In the case of RFRLSRAARNILEKHSLDASQGTATGPRGIFTKEDALKLVQLKQTGK [P6R], the abundance fitness is reported as 0.038 ± 0.046.
Variant RFRLSKAARNILEKHSLDASQGTATGPRGIFTKEDALKLVQLKQTGK [P6K] has an abundance fitness of 0.07 ± 0.077.
In the case of RFRLSCAARNILEKHSLDASQGTATGPRGIFTKEDALKLVQLKQTGK [P6C], the abundance fitness is reported as -0.004 ± 0.091.
RFRLSPAARNILEKHSLFASQGTATGPRGIFTKEDALKLVQLKQTGK [D18F] gave an abundance fitness of -0.92 ± 0.12.
Work on RFRLSPAARNIDEKHSLDASQGTATGPRGIFTKEDALKLVQLKQTGK [L12D] yielded an abundance fitness of 0.018 ± 0.076.
RFRRSPAARNILEKHSLDASQGTATGPRGIFTKEDALKLVQLKQTGK [L4R] showed an abundance fitness of -0.588 ± 0.058.
RFRPSPAARNILEKHSLDASQGTATGPRGIFTKEDALKLVQLKQTGK [L4P] gave an abundance fitness of -0.333 ± 0.051.
Variant RFRLSPAARNILEKHSLDASQGTATGPRGIFTKLDALKLVQLKQTGK [E34L] has an abundance fitness of -0.443 ± 0.061.
RFRLSPAARNILEKHSLDAMQGTATGPRGIFTKEDALKLVQLKQTGK [S20M] showed an abundance fitness of -0.18 ± 0.075.
RFRLSPAARNILEKHSLDAFQGTATGPRGIFTKEDALKLVQLKQTGK [S20F] showed an abundance fitness of -0.545 ± 0.068.
Variant RFRLSPAARNILEKHSLDAVQGTATGPRGIFTKEDALKLVQLKQTGK [S20V] has an abundance fitness of -0.369 ± 0.043.
Variant RFRLSPAARNILEKHSLDAIQGTATGPRGIFTKEDALKLVQLKQTGK [S20I] has an abundance fitness of -0.655 ± 0.17.
Variant RFRLSPAARNILEKKSLDASQGTATGPRGIFTKEDALKLVQLKQTGK [H15K] has an abundance fitness of -0.42 ± 0.085.
Work on RFRLSPAARNILEKASLDASQGTATGPRGIFTKEDALKLVQLKQTGK [H15A] yielded an abundance fitness of -0.276 ± 0.069.
In the case of RFRLSPAARNILEKHSLDASQGTATGPRGFFTKEDALKLVQLKQTGK [I30F], the abundance fitness is reported as -0.152 ± 0.05.
With RFRLSPAARNILEKHSLDASQGTATGPRGWFTKEDALKLVQLKQTGK [I30W] the abundance fitness was -0.229 ± 0.1.
In the case of RFRLSPAARNILEKHSLDASQGTATGPRGIFTKEDALKPVQLKQTGK [L39P], the abundance fitness is reported as -0.348 ± 0.086.
In the case of RFRLSPAARNILEKHSLDASQGTETGPRGIFTKEDALKLVQLKQTGK [A24E], the abundance fitness is reported as -0.333 ± 0.082.
Variant RFRLSPAARNILEKHSLDASQGTKTGPRGIFTKEDALKLVQLKQTGK [A24K] has an abundance fitness of -0.638 ± 0.13.
PFRLSPAARNILEKHSLDASQGTATGPRGIFTKEDALKLVQLKQTGK [R1P] showed an abundance fitness of -1.1 ± 0.25.
RFRLSPAARNILRKHSLDASQGTATGPRGIFTKEDALKLVQLKQTGK [E13R] showed an abundance fitness of -0.242 ± 0.043.
RFRLSPAARNILEKHSLDASQGTATLPRGIFTKEDALKLVQLKQTGK [G26L] gave an abundance fitness of -0.516 ± 0.057.
RFRLSPAARNILEKHSLDASQGTATGCRGIFTKEDALKLVQLKQTGK [P27C] showed an abundance fitness of -0.323 ± 0.067.
RFRLSPAARNILEKHSLDASQGTATGPRGIFTKEYALKLVQLKQTGK [D35Y] gave an abundance fitness of -0.865 ± 0.19.
RFRLSPAARNILEKHSLDASQGTATGPRGIFTKECALKLVQLKQTGK [D35C] gave an abundance fitness of -1.06 ± 0.19.
RFRLSPAARNILEKHSLDASQGTATGPRGIFTKEDALKLVQLKQFGK [T45F] gave an abundance fitness of -0.147 ± 0.25.
For RFRLSPAARNILEKHSLDASQGTATGPRGIFTKEDALKLVQLKQLGK [T45L], the abundance fitness was -0.146 ± 0.09.
RFRLSPAARNILEKHSLDASQGTATGPRGIFTKEDALKLVQLKQTEK [G46E] showed an abundance fitness of 0.122 ± 0.12.
In the case of RFRLSPAARNILEKHSLDASQGTATGPRGIFEKEDALKLVQLKQTGK [T32E], the abundance fitness is reported as -0.447 ± 0.057.
RFRLSPAARNILEKHSLDASQGTATGPRGIFCKEDALKLVQLKQTGK [T32C] gave an abundance fitness of -0.519 ± 0.12.
For RFRLSPAARNILEKHSLDASQGTATGPRGIFYKEDALKLVQLKQTGK [T32Y], the abundance fitness was -1.12 ± 0.2.
RFRLSPAARNILEKHSLDASQGTATGPRGIFLKEDALKLVQLKQTGK [T32L] gave an abundance fitness of -0.553 ± 0.097.
In the case of RFRLSPAARNILESHSLDASQGTATGPRGIFTKEDALKLVQLKQTGK [K14S], the abundance fitness is reported as -0.279 ± 0.054.
In the case of RFRLSPAARNILEKHSLDASQGTATGPRGIFTGEDALKLVQLKQTGK [K33G], the abundance fitness is reported as -0.331 ± 0.05.
With RFRLSPAARNILEKHSLDASQGTATGPRGIFTKEDALWLVQLKQTGK [K38W] the abundance fitness was -0.951 ± 0.12.
RFRLSPAARNILEKHSLDFSQGTATGPRGIFTKEDALKLVQLKQTGK [A19F] showed an abundance fitness of -0.59 ± 0.14.
In the case of RFRLSPAARNILEKHSLDASQGTATGPRYIFTKEDALKLVQLKQTGK [G29Y], the abundance fitness is reported as -1.01 ± 0.18.
Work on RFRLSPAARNILEKHSLDASQGTATGPRGIFTKEDADKLVQLKQTGK [L37D] yielded an abundance fitness of 0.035 ± 0.14.
For RFRLSPAARNILEKHSLDASQGTATGPRGIFTKEDAAKLVQLKQTGK [L37A], the abundance fitness was -0.55 ± 0.1.
RFRLSPAARNILEKHSLDASQGTATGPRGIFTKEDMLKLVQLKQTGK [A36M] gave an abundance fitness of -0.41 ± 0.073.
RFRLSPAARNILEKHSLDASQGTATGPRGIFTKEDCLKLVQLKQTGK [A36C] showed an abundance fitness of -0.339 ± 0.11.
RFRLSPGARNILEKHSLDASQGTATGPRGIFTKEDALKLVQLKQTGK [A7G] showed an abundance fitness of 0.06 ± 0.049.
RFRLSPAARNILEKHSLDASQGTATGPRGIETKEDALKLVQLKQTGK [F31E] showed an abundance fitness of -0.087 ± 0.071.
RFRLSPAARNILEKHSLDASQGTATGPRGIWTKEDALKLVQLKQTGK [F31W] showed an abundance fitness of -0.675 ± 0.14.
Variant RFRLSPAARNILEKHGLDASQGTATGPRGIFTKEDALKLVQLKQTGK [S16G] has an abundance fitness of 0.244 ± 0.043.
With RFRLSPAARNILEKHALDASQGTATGPRGIFTKEDALKLVQLKQTGK [S16A] the abundance fitness was -0.186 ± 0.063.
For RFRLSPAARYILEKHSLDASQGTATGPRGIFTKEDALKLVQLKQTGK [N10Y], the abundance fitness was -0.192 ± 0.12.
Variant RFRLSPAARAILEKHSLDASQGTATGPRGIFTKEDALKLVQLKQTGK [N10A] has an abundance fitness of 0.063 ± 0.048.
RFRLAPAARNILEKHSLDASQGTATGPRGIFTKEDALKLVQLKQTGK [S5A] showed an abundance fitness of -0.257 ± 0.049.
RFRLGPAARNILEKHSLDASQGTATGPRGIFTKEDALKLVQLKQTGK [S5G] showed an abundance fitness of -0.564 ± 0.049.
Work on RFRLRPAARNILEKHSLDASQGTATGPRGIFTKEDALKLVQLKQTGK [S5R] yielded an abundance fitness of -0.862 ± 0.057.
For RFRLSPAARNILEKHSLDASQGTATGPRGIFTKEDALKLVQLKATGK [Q44A], the abundance fitness was -0.008 ± 0.045.
